Test results reported in patent publication US20050112126A1 (Genentech, published 2005).
Changes are numbered by the printed parent chain. Names and notes keep the numbering of the source.

T1: VEGF121 (human, UniProt P15692 27-147)
T1 construct: mature; Immobilized on the biosensor chip via primary amino groups; also called Purified VEGF121
T1 sequence (looked up): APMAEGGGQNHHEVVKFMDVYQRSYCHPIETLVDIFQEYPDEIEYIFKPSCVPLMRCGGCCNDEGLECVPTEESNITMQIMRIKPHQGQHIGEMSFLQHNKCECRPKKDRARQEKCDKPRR

B1: pY0192 VH Y109A (Fab, V domains shown)
VH: EVQLVESGGGLVQPGGSLRLSCAASGYTFTNYGINWVRQAPGKGLEWVGWINTYTGEPTYAADFKRRFTFSLDTSKSTAYLQMNSLRAEDTAVYYCAKYPHYYGSSHWAFDVWGQGTL
VL: DIQLTQSPSSLSASVGDRVTITCRANEQLSNYLNWYQQKPGKAPKVLIYFTSSLHSGVPSRFSGSGSGTDFTLTISSLQPEDFATYYCQQYSTVPWTFGQGTKVEIKR
notes: Ala-scan variant of pY0192; Fab on phage
B2: pY0192 VL L29A (Fab, V domains shown)
VH: B1 VH with A109Y
VL: B1 VL with L29A
notes: as for B1
B3: pY0192 VL S92A (Fab, V domains shown)
VH: B1 VH with A109Y
VL: B1 VL with S92A
notes: as for B1
B4: pY0192 VL Q90A (Fab, V domains shown)
VH: B1 VH with A109Y
VL: B1 VL with Q90A
notes: as for B1
B5: pY0192 VL H55A (Fab, V domains shown)
VH: B1 VH with A109Y
VL: B1 VL with H55A
notes: as for B1
B6: pY0192 VL N26A (Fab, V domains shown)
VH: B1 VH with A109Y
VL: B1 VL with N26A
notes: as for B1
B7: pY0192 VL N31A (Fab, V domains shown)
VH: B1 VH with A109Y
VL: B1 VL with N31A
notes: Ala-scan variant of pY0192; Fab on phage; also called N31A (VL)
B8: pY0192 VL E27A (Fab, V domains shown)
VH: B1 VH with A109Y
VL: B1 VL with E27A
notes: as for B1
B9: pY0192 VL S53A (Fab, V domains shown)
VH: B1 VH with A109Y
VL: B1 VL with S53A
notes: as for B1
B10: pY0192 VL V94A (Fab, V domains shown)
VH: B1 VH with A109Y
VL: B1 VL with V94A
notes: as for B1
B11: pY0192 VL F50A (Fab, V domains shown)
VH: B1 VH with A109Y
VL: B1 VL with F50A
notes: as for B1
B12: pY0192 VL A25S (Fab, V domains shown)
VH: B1 VH with A109Y
VL: B1 VL with A25S
notes: as for B1
B13: pY0192 VL R24A (Fab, V domains shown)
VH: B1 VH with A109Y
VL: B1 VL with R24A
notes: as for B1
B14: pY0192 VL Y32A (Fab, V domains shown)
VH: B1 VH with A109Y
VL: B1 VL with Y32A
notes: Ala-scan variant of pY0192; Fab on phage; also called Y32A (VL)
B15: pY0192 VL N34A (Fab, V domains shown)
VH: B1 VH with A109Y
VL: B1 VL with N34A
notes: as for B1
B16: pY0192 VL T97A (Fab, V domains shown)
VH: B1 VH with A109Y
VL: B1 VL with T97A
notes: as for B1
B17: pY0192 VL Q28A (Fab, V domains shown)
VH: B1 VH with A109Y
VL: B1 VL with Q28A
notes: as for B1
B18: pY0192 VL Y91A (Fab, V domains shown)
VH: B1 VH with A109Y
VL: B1 VL with Y91A
notes: as for B1
B19: pY0192 VL L33A (Fab, V domains shown)
VH: B1 VH with A109Y
VL: B1 VL with L33A
notes: as for B1
B20: pY0192 VL T51A (Fab, V domains shown)
VH: B1 VH with A109Y
VL: B1 VL with T51A
notes: as for B1
B21: pY0192 VL L54A (Fab, V domains shown)
VH: B1 VH with A109Y
VL: B1 VL with L54A
notes: as for B1
B22: pY0192 VL P95A (Fab, V domains shown)
VH: B1 VH with A109Y
VL: B1 VL with P95A
notes: as for B1
B23: pY0192 VL Q89A (Fab, V domains shown)
VH: B1 VH with A109Y
VL: B1 VL with Q89A
notes: as for B1
B24: pY0192 VL S30A (Fab, V domains shown)
VH: B1 VH with A109Y
VL: B1 VL with S30A
notes: as for B1
B25: pY0192 VL T93A (Fab, V domains shown)
VH: B1 VH with A109Y
VL: B1 VL with T93A
notes: as for B1
B26: pY0192 VL S52A (Fab, V domains shown)
VH: B1 VH with A109Y
VL: B1 VL with S52A
notes: as for B1
B27: pY0192 VL S56A (Fab, V domains shown)
VH: B1 VH with A109Y
VL: B1 VL with S56A
notes: as for B1
B28: hu2.1 (Fab, name in Kabat numbering, V domains shown)
VH: EVQLVESGGGLVQPGGSLRLSCAASGYTFTNYGMNWIRQAPGKGLEWVGWINTYTGEPTYAADFKRRFTISRDNSKNTVYLQMNSLRAEDTAVYYCAKYPHYYGSSHWYFDVWGQGTLVTVSS
VL: DIQMTQSPSSLSASVGDRVTITCSASQDISNYLNWYQQKPGKAPKLLIYFTSSLHSGVPSRFSGSGSGTDYTLTISSLQPEDFATYYCQQYSTVPWTFGQGTKVEIK
notes: soluble Fab with human constant domains
B29: hu2.6 (Fab, name in Kabat numbering, V domains shown)
VH: B28 VH with F68T, R72L, N74T, K76A, N77S
VL: B28 VL with M4L, Y71F
notes: as for B28
B30: hu2.10V (Fab, V domains shown)
VH: B28 VH with R72L, N74T, K76A, N77S
VL: B28 VL with L46V
notes: Soluble Fab with human constant domains; also called hu2.10 with mutation VL Leu->Val
B31: hu2.7 (Fab, name in Kabat numbering, V domains shown)
VH: B28 VH
VL: B28 VL with M4L, Y71F
notes: as for B28
B32: hu2.10 (Fab, V domains shown)
VH: B28 VH with R72L, N74T, K76A, N77S
VL: B28 VL
notes: Soluble Fab with human constant domains; also called consensus clone hu2.10
B33: hu2.2 (Fab, name in Kabat numbering, V domains shown)
VH: B28 VH
VL: B28 VL with M4L
notes: as for B28

Target: T2, VEGF (human, UniProt P15692-4 27-191, limits assumed)
T2 construct: Biotinylated in the KDR-IgG ELISA, amine-coupled to the chip in BIAcore; also called biotinylated VEGF; vascular endothelial growth factor
Test: competitive phage-ELISA, relative to pY0192
Protocol: In such an assay, phages were first serially diluted to determine a fractional saturation titer which was then held constant and used to incubate with varying concentrations of VEGF (starting at 200 nM to 0 nM) in solution. The mixture was then transferred onto plate precoated with VEGF (2 μg/mL) and blocked with 5% instant milk, and allowed to equilibrate for 1 hour at room temperature. Thereafter, the phage solution was removed and the remaining bound phages were detected with a solution of rabbit anti-phage antibody mixed with goat anti-rabbit conjugate of horse radish peroxidase. After an hour incubation at room temperature, the plate was developed with a chromogenic substrate, o-phenylenediamine (Sigma). The reaction was stopped with addition of ½ volume of 2.5 M H₂SO₄. Optical density at 492 nm was measured on a spectrophotometric plate reader.
IC50's were determined in a competitive phage-ELISA assay.

T2 sequence (P15692 other isoform, or with tags, fused parts or gaps limits assumed): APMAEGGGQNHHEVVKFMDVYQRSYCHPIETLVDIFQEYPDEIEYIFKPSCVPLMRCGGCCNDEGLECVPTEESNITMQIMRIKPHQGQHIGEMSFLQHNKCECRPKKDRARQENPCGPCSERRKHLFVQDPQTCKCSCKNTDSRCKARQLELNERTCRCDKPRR

Binder | IC50 (mut)/IC50 (wt)
B1 | 19 ratio
B2 | 1 ratio
B3 | 1 ratio
B4 | 3 ratio
B5 | 1 ratio
B6 | 1 ratio
B7 | 2 ratio
B8 | 1 ratio
B9 | 1 ratio
B10 | 2 ratio
B11 | 1 ratio
B12 | 1 ratio
B13 | 1 ratio
B14 | 2 ratio
B15 | 4 ratio
B16 | 1 ratio
B17 | 1 ratio
B18 | 14 ratio
B19 | 2 ratio
B20 | 1 ratio
B21 | 1 ratio
B22 | 3 ratio
B23 | 4 ratio
B24 | 2 ratio
B25 | 1 ratio
B26 | 1 ratio
B27 | 1 ratio

Target: T1, VEGF121
Test: BIAcore SPR, Fab over immobilized VEGF121
Protocol: VEGF₁₂₁ was covalently immobilized on the biosensorchip via primary amino groups. Binding of humanized A4.6.1 Fab variants was measured by flowing solutions of Fab in PBS/0.05% TWEEN 20™ over the chip at a flow rate of 20 μL/min. Following each binding measurement, residual Fab was stripped from the immobilized ligand by washing with 5 μL of 50 mM aqueous HCl at 3 μL/min. Binding profiles were analyzed by nonlinear regression using a simple monovalent binding model (BIAevaluation software v2.0; Pharmacia).

Binder | KD(A4.6.1)/KD(mut) as headed (values read as KD(mut)/KD(A4.6.1)) | Kd | koff | kon | fold improvement in KD vs hu2.10 | fold tighter KD than hu2.0
B28 | 170 ratio | 260 nM | 0.0018 s⁻¹ | 7000 M⁻¹ s⁻¹ | – | –
B29 | 40 ratio | 67 nM | 0.00045 s⁻¹ | 6700 M⁻¹ s⁻¹ | – | –
B30 | 5.8 ratio | 9.3 nM | 0.00018 s⁻¹ | 20000 M⁻¹ s⁻¹ | 6 fold | –
B31 | 230 ratio | 360 nM | 0.0024 s⁻¹ | 6700 M⁻¹ s⁻¹ | – | –
B32 | 35 ratio | 55 nM | 0.00035 s⁻¹ | 6300 M⁻¹ s⁻¹ | – | ≥ 125 fold
B33 | 210 ratio | 340 nM | 0.0016 s⁻¹ | 4700 M⁻¹ s⁻¹ | – | –
